Where no end group is shown, it is not given here.
Experiments:
[1] = biological target: IgA (monomeric serum IgA, coated on beads or plates) (human, UniProt P01876-1 1-353); assay: cell-based or functional assay
[2] = biological target: CD89 (Fc receptor for IgA) on polymorphonuclear cells (human, UniProt P24071 22-287); assay: cell-based or functional assay
Chain of CD89 (Fc receptor for IgA) on polymorphonuclear cells (P24071 22-287): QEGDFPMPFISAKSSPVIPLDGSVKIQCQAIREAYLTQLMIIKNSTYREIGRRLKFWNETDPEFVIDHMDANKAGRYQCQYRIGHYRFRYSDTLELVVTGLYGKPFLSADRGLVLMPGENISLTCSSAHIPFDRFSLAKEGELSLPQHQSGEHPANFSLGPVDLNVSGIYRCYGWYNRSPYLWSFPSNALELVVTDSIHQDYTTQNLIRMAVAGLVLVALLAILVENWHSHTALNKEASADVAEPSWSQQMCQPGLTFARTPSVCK

Chain of IgA (monomeric serum IgA, coated on beads or plates) (P01876 other isoform, or with tags, fused parts or gaps): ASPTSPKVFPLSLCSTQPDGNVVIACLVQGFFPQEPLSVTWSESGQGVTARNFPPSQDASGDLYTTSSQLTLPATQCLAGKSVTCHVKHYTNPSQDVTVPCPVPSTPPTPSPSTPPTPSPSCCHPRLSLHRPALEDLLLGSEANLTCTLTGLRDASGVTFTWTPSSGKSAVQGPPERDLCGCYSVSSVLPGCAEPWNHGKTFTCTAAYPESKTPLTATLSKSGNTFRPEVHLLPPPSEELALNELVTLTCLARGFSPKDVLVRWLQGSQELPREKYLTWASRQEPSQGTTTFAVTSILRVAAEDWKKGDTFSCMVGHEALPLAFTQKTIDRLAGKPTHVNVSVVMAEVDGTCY

Row | Binder | percentage blocking (polymorphonuclear cells bound to IgA-coated beads, 2-D migration assay) [1] [%] | percentage blocking (polymorphonuclear cells bound to IgA-coated beads, 2-D migration assay) [2] [%]
1 | REIGRRLKFWNETDP [Peptide Fc alpha 113] | ≤ 19 | 
2 | CSMVGHEALPLAFTQKC-NH2 (cysteine pairing not given here) [peptide PEO-47 mP2#2,3] |  | ≤ 20
3 | HEALPLAFTQK-NH2 [peptide IgA CH3] |  | ≤ 18
